The values below are quoted from earlier work in PMC8541618.

Series [1] has as its target VanRA (Enterococcus faecium) (UniProt Q06239).
Series [2] shares this target. The source holds these as a separate data set.

Read-outs that look alike come from different tables or passages of the source.

Chain of UniProt Q06239 (Q06239 whole entry): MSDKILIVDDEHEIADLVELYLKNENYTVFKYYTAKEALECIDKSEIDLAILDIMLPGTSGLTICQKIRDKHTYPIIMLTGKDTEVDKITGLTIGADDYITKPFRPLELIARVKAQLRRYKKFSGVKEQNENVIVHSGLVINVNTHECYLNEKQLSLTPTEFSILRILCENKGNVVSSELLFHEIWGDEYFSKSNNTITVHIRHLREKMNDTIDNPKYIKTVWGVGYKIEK

A word on the Kd: it is the constant that tells how readily two partners part at equilibrium. In the case of VanSA (from UniProt Q06240), the Kd in series [1] is 1.9 µM.
Take “VanSA cytosolic portion (from UniProt Q06240)”: in series [2], the Kd is 6.8 µM.
